T1: r murine EphA8 (mouse, UniProt O09127)
T1 construct: recombinant (rEphA8, R&D Systems); also called rEphA8
T1 sequence (receptor, looked up): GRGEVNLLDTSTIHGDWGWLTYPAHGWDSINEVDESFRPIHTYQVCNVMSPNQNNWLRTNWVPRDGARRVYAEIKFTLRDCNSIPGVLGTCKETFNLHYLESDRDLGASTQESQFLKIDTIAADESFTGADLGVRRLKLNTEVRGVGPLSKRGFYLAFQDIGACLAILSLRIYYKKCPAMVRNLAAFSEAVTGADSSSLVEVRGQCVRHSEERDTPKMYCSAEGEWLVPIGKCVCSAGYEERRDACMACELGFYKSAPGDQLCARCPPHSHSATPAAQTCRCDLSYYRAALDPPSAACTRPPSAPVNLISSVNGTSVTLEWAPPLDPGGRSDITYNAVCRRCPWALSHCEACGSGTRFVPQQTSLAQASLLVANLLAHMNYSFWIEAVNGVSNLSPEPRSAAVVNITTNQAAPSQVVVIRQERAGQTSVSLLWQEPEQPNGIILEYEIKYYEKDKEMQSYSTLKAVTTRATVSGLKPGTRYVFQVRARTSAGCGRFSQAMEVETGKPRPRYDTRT

T2: r murine EphA7 (mouse, UniProt Q61772)
T2 construct: recombinant Fc fusion (R&D Systems); also called rmuEphA7-Fc; mEphA7
T2 sequence (receptor-Fc fusion, looked up): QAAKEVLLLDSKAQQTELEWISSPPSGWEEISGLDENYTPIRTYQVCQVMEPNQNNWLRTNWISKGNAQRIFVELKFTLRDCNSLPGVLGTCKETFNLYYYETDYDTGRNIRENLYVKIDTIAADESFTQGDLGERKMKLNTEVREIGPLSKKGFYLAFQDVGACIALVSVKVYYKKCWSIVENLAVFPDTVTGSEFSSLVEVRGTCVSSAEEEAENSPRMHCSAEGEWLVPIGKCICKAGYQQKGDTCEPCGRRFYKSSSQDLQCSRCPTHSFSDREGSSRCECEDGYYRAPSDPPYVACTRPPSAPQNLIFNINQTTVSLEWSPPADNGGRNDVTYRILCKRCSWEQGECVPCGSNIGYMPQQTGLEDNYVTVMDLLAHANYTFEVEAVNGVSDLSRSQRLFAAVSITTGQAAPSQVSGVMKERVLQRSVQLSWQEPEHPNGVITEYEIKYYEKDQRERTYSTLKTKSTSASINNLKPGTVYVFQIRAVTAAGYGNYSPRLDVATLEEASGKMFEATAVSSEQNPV


Legend:
r murine EphA4 = biological target: T3, r murine EphA4 (mouse, UniProt Q03137); assay: activity ELISA, Fab on coated antigen
T3 construct: recombinant Fc fusion (R&D Systems); also called rmuEphA4-Fc; mEphA4
T3 sequence (Q03137 20-547 limits assumed): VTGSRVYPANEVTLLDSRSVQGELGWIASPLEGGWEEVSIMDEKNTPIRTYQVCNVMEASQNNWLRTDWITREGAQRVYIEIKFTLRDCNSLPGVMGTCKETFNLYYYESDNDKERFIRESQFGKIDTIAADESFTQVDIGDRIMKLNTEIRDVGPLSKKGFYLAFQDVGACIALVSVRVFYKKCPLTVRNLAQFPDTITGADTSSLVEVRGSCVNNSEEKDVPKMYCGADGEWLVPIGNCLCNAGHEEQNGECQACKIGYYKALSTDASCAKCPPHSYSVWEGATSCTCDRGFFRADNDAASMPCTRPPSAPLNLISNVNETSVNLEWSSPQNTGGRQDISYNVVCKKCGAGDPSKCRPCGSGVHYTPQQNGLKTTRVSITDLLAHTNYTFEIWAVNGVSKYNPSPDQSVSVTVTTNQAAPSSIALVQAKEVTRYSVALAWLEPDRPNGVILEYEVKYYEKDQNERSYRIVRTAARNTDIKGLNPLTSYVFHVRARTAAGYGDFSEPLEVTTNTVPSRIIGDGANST
Description: (§1) More precisely, Nunc Maxisorp plates were coated with the following rEphA proteins: rhuEphAl-Fc, rmuEphA2-Fc, rmuEphA3-Fc, rmuEphA4-Fc, rratEphA5-Fc, rmuEphA6-Fc, rmuEphA7-Fc, rEphA8; all at 0.5 μg/well (all R&D Systems) rhuEphA2-Fc; 0.5 μg/well, and rhuEphA4-His; 0.1 μg/well (both produced at MedImmune, Inc.). Plates were blocked with 3% BSA+0.1% Tween20 for 2 h. […] Incubation with a goat anti-human kappa horseradish peroxydase (HRP) conjugate then followed. HRP activity was detected with TMB substrate and the reaction quenched with 0.2 M H₂SO₄. Plates were read at 450 nm. Data was analyzed by normalizing Fab concentrations to the corresponding activity data (see FIGS. 10B-10H).

r murine EphA8 = biological target: T1, r murine EphA8; assay: activity ELISA, Fab on coated antigen
Description: as §1

r murine EphA7 = biological target: T2, r murine EphA7; assay: activity ELISA, Fab on coated antigen
Description: as §1

[1] = biological target: T4, human EphA4 (construct not given) (human, UniProt P54764 20-547, limits assumed); assay: capture ELISA, 25 ng/well sheep anti-human Fd
T4 construct: also called EphA4 receptor
T4 sequence (P54764 20-547 limits assumed): as the sequence (Q03137 20-547 limits assumed) above, with A59P, S121N, G124V, Q250R, N251S, S270T, R378K, S406N counted along it

Binder | binding result (r murine EphA4) | binding result (r murine EphA8) | binding result (r murine EphA7) | fold increase in affinity over Fab20 parental background [1] [fold]
2C9 Fab (affinity optimized combinatorial variant of Fab20) (Fab, V domains shown) VH: QVQLLQSGAEVKKPGASVKVPCKASGYTFTSRAMSWVRQAPGQGLEWMGWINTNTGNPTYAQGFTGRFVFSLDTSVSTAYLQISSLKAEDTAVYYCARVRFTVYGDGMDVWGQGTLVTVSS VL: EIVLTQSPATLSVSPGERATLSCRASQSVSSNLAWYQQKPGQAPRLLIYGASTRPTGIPDRFSASGSGTDFTLTISRVEPEDFAVYYCQQYGPSWTFGQGTKVEIK | binds | binds | binds | 
11G6 Fab (affinity optimized CDR3 heavy variant of Fab20) (Fab, V domains shown) VH: QVQLLQSGAEVKKPGASVKVPCKASGYTFTSYAMSWVRQAPGQGLEWMGWINTNTGNPTYAQGFTGRFVFSLDTSVSTAYLQISSLKAEDTAVYYCARVRFTVYGDGMDVWGQGTLVTVSS VL: EIVLTQSPATLSVSPGERATLSCRASQSVSSNLAWYQQKPGQAPRLLIYGASTRATGIPDRFSASGSGTDFTLTISRVEPEDFAVYYCQQYGSSWTFGQGTKVEIK |  |  |  | 1.6
11H1 Fab (single-change CDR3 heavy variant of Fab20) (Fab, V domains shown, also called GEA44 derivative 11H1) VH: QVQLLQSGAEVKKPGASVKVPCKASGYTFTSYAMSWVRQAPGQGLEWMGWINTNTGNPTYAQGFTGRFVFSLDTSVSTAYLQISSLKAEDTAVYYCARVRLTVYGDGMDVWGQGTLVTVSS VL: EIVLTQSPATLSVSPGERATLSCRASQSVSSNLAWYQQKPGQAPRLLIYGASTRATGIPDRFSASGSGTDFTLTISRVEPEDFAVYYCQQYGSSWTFGQGTKVEIK |  |  |  | 1.4

Reference: US20060121042A1 (AstraZeneca / MedImmune, published 2006)
